Test results: US20070232789A1 (UNIVERSITY OF MARYLAND BALTIMORE, published 2007)

Legend:
[1] = molecular target: T1, low-density lipoprotein receptor-related protein (LRP), purified (human, UniProt Q07954 20-4544); assay: competition: peptide 484-509 varied, competitor 125I-fVIII, LRP-coated microtiter wells
T1 construct: mature; also called low density lipoprotein receptor-related protein/α2-macroglobulin receptor; LRP receptor
Procedure: FIGS. 17A-17B. […] The mean and standard deviation of the triplicate measurements are presented.
(§1) Solid-phase binding assays. […] Microtiter wells were coated with purified LRP or BSA (3 μg/ml) in 50 mM Tris, 0.15 M NaCl, pH 8.0, for 16 h and then blocked with 3% BSA in TBS. […] The radioactivity bound to the wells was counted using a γ-counter (Pharmacia). Affinity constants were derived from homologous and heterologous displacement data using the computer program LIGAND (Munson, P T and Rodbard, D. Anal. Biochem. 107:220-239 (1980)).

[2] = molecular target: T1, low-density lipoprotein …; assay: heterologous ligand displacement: RAP varied, competitor 125I-fVIII (1 nM), LRP-coated microtiter wells
Procedure: (§2) FIGS. 15A-15B. […] Each point represents the mean value of triplicates and the error bars display the standard deviation. The curves show a best fit of the data to a model describing heterologous ligand displacement from a single class of binding sites using the program LIGAND.
as §1

[3] = molecular target: T1, low-density lipoprotein …; assay: heterologous displacement of ^125I-fVIII (1 nM) from LRP-coated wells
Procedure: as §2, §1

[4] = molecular target: T1, low-density lipoprotein …; assay: SPR, BIAcore 3000, one-site model, KD = koff/kon
Description: (§3) Surface plasmon resonance-based binding assay. […] This system allows real-time biomolecular interaction analysis (BIA) using surface plasmon resonance (SPR) technology. One molecule (the ligand) is usually immobilized on the surface of the sensor chip; the second molecule (the analyte) in solution is passed over the chip under conditions of continuous flow, and the amount of the bound analyte is detected by the system. SPR is a non-invasive optical measuring technique which measures the mass concentration of biomolecules in close proximity to the sensor chip where association and dissociation of biomolecular complexes occurs. […] The association (kₒₙ) and dissociation (koff) rate constants were determined using BIAevaluation Version 3.1 software. The data were corrected for bulk refraction index changes and fitted to a one-site binding model by a non-linear regression analysis Equilibrium dissociation constants (KD) were calculated from the ratio koff/kₒₙ.

[5] = molecular target: T2, A1/A3-C1-C2 heterodimer of factor VIII, plasma-derived (human, UniProt P00451 20-391; P00451 1709-2351); assay: cell-based or functional assay
T2 sequence 1: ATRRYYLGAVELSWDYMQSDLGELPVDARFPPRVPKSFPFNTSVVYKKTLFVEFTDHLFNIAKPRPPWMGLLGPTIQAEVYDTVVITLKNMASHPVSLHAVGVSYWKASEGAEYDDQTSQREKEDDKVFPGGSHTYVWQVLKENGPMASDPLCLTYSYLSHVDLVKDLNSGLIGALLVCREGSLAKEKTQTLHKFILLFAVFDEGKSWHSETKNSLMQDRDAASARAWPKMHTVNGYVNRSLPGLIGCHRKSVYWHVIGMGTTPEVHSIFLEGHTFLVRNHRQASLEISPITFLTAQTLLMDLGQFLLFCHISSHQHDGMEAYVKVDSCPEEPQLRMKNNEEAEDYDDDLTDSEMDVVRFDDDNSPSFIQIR
T2 sequence 2: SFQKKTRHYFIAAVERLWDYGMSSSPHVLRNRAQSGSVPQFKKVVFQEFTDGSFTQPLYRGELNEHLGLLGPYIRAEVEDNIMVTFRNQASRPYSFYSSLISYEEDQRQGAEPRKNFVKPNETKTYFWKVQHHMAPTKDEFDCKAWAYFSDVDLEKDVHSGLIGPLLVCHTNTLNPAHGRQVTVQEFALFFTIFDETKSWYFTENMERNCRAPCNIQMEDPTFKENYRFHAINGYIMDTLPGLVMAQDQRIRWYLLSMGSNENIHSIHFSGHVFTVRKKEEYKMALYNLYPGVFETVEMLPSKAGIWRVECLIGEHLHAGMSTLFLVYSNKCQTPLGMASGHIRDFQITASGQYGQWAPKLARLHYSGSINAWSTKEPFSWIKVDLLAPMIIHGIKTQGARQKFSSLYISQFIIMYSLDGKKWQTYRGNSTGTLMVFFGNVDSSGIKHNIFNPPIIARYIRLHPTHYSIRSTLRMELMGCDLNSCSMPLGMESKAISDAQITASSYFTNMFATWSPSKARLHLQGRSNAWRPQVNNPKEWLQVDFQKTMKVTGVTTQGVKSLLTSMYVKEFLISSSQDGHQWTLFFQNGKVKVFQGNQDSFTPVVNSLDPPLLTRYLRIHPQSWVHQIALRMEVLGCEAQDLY

[6] = molecular target: T1, low-density lipoprotein …; assay: SPR, BIAcore 3000
Description: as §3

T1 sequence (Q07954 20-4544, form in doubt): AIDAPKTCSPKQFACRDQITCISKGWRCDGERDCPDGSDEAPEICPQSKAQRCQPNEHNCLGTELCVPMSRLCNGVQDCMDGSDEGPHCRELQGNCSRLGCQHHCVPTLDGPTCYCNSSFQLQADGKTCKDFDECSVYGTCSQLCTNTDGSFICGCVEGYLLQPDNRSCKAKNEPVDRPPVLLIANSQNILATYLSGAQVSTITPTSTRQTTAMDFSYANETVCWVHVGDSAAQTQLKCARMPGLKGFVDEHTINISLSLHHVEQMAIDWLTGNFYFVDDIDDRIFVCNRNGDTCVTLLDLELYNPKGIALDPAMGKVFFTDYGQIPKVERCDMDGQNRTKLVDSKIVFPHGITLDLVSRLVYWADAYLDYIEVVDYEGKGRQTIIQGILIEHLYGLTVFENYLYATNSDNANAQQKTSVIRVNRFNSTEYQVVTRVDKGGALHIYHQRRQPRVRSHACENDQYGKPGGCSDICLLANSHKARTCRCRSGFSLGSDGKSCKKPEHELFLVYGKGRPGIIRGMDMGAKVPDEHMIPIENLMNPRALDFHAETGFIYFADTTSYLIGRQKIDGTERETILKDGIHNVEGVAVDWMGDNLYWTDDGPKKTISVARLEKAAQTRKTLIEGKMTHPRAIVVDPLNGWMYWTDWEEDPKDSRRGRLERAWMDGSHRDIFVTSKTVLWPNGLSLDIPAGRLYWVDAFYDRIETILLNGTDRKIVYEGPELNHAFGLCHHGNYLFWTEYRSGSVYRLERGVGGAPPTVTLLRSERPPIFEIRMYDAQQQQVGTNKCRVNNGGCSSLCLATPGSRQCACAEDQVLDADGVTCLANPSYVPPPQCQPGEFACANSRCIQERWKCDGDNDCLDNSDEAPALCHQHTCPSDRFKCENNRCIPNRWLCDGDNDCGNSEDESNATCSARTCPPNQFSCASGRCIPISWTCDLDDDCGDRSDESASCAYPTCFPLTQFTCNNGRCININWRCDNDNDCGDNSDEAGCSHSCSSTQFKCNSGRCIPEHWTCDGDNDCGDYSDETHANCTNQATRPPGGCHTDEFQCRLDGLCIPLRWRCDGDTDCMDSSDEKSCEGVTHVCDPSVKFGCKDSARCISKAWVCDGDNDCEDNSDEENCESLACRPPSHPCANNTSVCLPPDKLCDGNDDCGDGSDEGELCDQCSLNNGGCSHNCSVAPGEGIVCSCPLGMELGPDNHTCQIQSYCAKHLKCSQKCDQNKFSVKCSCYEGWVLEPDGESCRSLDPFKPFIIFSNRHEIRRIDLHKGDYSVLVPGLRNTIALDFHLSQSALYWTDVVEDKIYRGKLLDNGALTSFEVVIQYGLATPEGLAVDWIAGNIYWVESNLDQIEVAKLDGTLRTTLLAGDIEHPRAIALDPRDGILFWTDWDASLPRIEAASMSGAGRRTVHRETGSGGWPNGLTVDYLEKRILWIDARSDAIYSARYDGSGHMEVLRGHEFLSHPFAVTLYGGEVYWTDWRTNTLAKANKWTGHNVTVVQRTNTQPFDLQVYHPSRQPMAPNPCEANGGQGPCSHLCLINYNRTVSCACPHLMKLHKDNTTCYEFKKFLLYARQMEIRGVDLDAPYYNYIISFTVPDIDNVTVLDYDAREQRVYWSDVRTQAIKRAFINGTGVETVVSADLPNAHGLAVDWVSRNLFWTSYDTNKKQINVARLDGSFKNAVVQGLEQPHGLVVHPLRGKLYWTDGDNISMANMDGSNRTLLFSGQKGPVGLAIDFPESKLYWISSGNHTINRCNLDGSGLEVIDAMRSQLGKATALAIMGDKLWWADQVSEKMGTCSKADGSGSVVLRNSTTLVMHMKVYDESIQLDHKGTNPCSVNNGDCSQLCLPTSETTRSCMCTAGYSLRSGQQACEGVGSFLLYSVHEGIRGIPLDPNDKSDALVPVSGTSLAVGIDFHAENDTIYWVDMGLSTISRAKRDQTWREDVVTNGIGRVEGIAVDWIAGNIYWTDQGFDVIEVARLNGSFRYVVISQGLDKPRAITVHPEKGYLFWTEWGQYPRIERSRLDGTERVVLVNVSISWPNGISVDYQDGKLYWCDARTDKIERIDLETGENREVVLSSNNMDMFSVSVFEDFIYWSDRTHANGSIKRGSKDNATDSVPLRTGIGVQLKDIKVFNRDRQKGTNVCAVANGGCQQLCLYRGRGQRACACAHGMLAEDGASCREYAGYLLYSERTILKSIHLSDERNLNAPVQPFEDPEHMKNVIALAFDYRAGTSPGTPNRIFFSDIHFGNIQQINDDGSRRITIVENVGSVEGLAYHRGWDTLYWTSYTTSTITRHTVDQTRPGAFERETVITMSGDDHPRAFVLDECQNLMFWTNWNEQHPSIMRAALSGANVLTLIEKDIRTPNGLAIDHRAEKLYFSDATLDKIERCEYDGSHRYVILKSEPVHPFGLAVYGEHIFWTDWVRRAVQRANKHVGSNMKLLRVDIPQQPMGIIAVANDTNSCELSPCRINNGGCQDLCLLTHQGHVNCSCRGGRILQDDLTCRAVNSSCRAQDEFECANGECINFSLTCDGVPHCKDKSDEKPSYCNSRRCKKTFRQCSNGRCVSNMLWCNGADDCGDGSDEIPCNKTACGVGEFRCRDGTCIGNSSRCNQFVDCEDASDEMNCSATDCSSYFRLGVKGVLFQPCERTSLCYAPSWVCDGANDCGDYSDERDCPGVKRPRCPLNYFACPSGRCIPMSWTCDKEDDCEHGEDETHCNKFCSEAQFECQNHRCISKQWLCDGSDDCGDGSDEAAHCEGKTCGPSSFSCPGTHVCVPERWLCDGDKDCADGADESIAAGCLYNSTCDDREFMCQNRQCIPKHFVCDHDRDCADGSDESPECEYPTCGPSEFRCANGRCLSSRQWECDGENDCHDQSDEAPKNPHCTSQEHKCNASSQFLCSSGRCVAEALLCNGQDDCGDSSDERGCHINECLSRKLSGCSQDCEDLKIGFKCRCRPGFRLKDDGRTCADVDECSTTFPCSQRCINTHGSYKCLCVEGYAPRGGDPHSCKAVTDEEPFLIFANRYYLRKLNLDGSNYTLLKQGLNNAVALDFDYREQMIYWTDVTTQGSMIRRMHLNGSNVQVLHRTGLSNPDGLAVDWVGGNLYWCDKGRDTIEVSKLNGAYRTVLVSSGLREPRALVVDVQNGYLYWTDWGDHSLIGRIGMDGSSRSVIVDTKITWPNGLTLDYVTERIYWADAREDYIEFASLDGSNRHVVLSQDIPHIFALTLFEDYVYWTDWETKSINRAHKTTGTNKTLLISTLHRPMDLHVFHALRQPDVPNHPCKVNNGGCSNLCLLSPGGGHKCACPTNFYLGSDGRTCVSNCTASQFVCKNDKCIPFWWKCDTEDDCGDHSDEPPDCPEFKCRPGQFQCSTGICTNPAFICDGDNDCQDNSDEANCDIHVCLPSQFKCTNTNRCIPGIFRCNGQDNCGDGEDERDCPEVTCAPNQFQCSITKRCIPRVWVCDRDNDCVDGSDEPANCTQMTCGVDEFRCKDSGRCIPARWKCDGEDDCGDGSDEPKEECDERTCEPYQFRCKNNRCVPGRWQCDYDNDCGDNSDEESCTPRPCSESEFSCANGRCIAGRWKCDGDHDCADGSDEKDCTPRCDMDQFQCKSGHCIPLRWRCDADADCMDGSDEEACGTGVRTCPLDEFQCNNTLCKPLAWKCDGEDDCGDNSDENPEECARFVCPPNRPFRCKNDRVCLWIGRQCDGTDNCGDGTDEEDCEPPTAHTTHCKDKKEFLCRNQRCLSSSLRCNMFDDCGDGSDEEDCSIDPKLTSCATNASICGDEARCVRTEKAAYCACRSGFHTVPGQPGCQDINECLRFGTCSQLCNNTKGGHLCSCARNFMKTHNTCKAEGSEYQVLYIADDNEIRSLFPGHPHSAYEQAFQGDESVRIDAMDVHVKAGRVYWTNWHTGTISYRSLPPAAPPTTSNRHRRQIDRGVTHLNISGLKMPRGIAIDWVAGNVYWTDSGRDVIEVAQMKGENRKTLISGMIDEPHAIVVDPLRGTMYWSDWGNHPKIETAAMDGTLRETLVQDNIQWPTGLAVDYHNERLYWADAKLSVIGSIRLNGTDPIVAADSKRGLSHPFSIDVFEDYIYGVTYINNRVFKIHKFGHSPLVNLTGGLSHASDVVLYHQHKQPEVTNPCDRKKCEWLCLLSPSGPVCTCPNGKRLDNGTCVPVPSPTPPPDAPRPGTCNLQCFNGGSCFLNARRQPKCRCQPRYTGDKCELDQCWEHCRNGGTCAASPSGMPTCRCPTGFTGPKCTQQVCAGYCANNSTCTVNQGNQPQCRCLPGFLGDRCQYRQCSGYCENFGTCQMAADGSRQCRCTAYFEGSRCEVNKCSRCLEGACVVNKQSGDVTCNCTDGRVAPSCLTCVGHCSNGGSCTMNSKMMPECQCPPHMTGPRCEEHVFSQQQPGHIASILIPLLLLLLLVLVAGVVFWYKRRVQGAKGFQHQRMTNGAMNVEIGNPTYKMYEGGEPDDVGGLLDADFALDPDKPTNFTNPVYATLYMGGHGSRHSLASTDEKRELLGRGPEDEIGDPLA

Binder | IC50 (read off the curve) [1] [nM] | IC50 (read off the curve) [2] [nM] | Ki [3] [nM] | Kd [4] [nM] | Activity of reconstituted FVIIIa (% of wt activity) [5] | fold decrease of affinity against wt-A2 [6] [fold]
RPLYSRRLPKGVKHLKDFPILPGEIF [synthetic A2 domain peptide 484-509] | ~1000 | – | – | – | – | –
39 kDa receptor-associated protein (RAP), human, expressed in bacteria (other, also called α2 macroglobulin receptor-associated protein) YSREKNQPKPSPKRESGEEFRMEKLNQLWEKAQRLHLPPVRLAELHADLKIQERDELAWKKLKLDGLDEDGEKEARLIRNLNVILAKYGLDGKKDARQVTSNSLSGTQEDGLDDPRLEKLWHKAKTSGKFSGEELDKLWREFLHHKEKVHEYNVLLETLSRTEEIHENVISPSDLSDIKGSVLHSRHTELKEKLRSINQGLDRLRRVSHQGYSTEAEFEEPRVIDLWDLAQSANLTDKELEAFREELKHFEAKIEKHNHYQKQLEIAHEKLRHAESVGDGERVSRSREKHALLEGRTKELGYTVKKHLQDLSGRISRARHNEL | – | ~2 | 2.5 | – | – | –
recombinant A2 mutant #8 (Tyr-487 to Ala) (other, hx-A2 form from Sf9 cells) SGAKKHPKTWVHYIAAEEEDWDYAPLVLAPDDRSYKSQYLNNGPQRIGRKYKKVRFMAYTDETFKTREAIQHESGILGPLLYGEVGDTLLIIFKNQASRPYNIYPHGITDVRPLASRRLPKGVKHLKDFPILPGEIFKYKWTVTVEDGPTKSDPRCLTRYYSSFVNMERDLASGLIGPLLICYKESVDQRGNQIMSDKRNVILFSVFDENRSWYLTENIQRFLPNPAGVQLEDPEFQASNIMHSINGYVFDSLQLSVCLHEVAYWYILSIGAQTDFLSVFFSGYTFKHKMVYEDTLTLFPFSGETVFMSMENPGLWILGCHNSDFRNRGMTALLKVSSCDKNTGDYYEDSYEDISAYLLSKNNAIEPR | – | – | – | 97 | 87.9 % of wt activity | 5
recombinant A2 mutant #10 (Arg-489 to Ala) (other, hx-A2 form from Sf9 cells) SGAKKHPKTWVHYIAAEEEDWDYAPLVLAPDDRSYKSQYLNNGPQRIGRKYKKVRFMAYTDETFKTREAIQHESGILGPLLYGEVGDTLLIIFKNQASRPYNIYPHGITDVRPLYSARLPKGVKHLKDFPILPGEIFKYKWTVTVEDGPTKSDPRCLTRYYSSFVNMERDLASGLIGPLLICYKESVDQRGNQIMSDKRNVILFSVFDENRSWYLTENIQRFLPNPAGVQLEDPEFQASNIMHSINGYVFDSLQLSVCLHEVAYWYILSIGAQTDFLSVFFSGYTFKHKMVYEDTLTLFPFSGETVFMSMENPGLWILGCHNSDFRNRGMTALLKVSSCDKNTGDYYEDSYEDISAYLLSKNNAIEPR | – | – | – | 150 | 130 % of wt activity | 7
recombinant A2 mutant #19 (Lys-523 to Ala) (other, hx-A2 form from Sf9 cells; not shown: N-terminal hx leader (6xHis tag, vector-derived linker, factor Xa site)) SGAKKHPKTWVHYIAAEEEDWDYAPLVLAPDDRSYKSQYLNNGPQRIGRKYKKVRFMAYTDETFKTREAIQHESGILGPLLYGEVGDTLLIIFKNQASRPYNIYPHGITDVRPLYSRRLPKGVKHLKDFPILPGEIFKYKWTVTVEDGPTASDPRCLTRYYSSFVNMERDLASGLIGPLLICYKESVDQRGNQIMSDKRNVILFSVFDENRSWYLTENIQRFLPNPAGVQLEDPEFQASNIMHSINGYVFDSLQLSVCLHEVAYWYILSIGAQTDFLSVFFSGYTFKHKMVYEDTLTLFPFSGETVFMSMENPGLWILGCHNSDFRNRGMTALLKVSSCDKNTGDYYEDSYEDISAYLLSKNNAIEPR | – | – | – | 41 | 390 % of wt activity | –
recombinant A2 mutant #20 (Lys-556 to Ala) (other, hx-A2 form from Sf9 cells; not shown: N-terminal hx leader (6xHis tag, vector-derived linker, factor Xa site)) SGAKKHPKTWVHYIAAEEEDWDYAPLVLAPDDRSYKSQYLNNGPQRIGRKYKKVRFMAYTDETFKTREAIQHESGILGPLLYGEVGDTLLIIFKNQASRPYNIYPHGITDVRPLYSRRLPKGVKHLKDFPILPGEIFKYKWTVTVEDGPTKSDPRCLTRYYSSFVNMERDLASGLIGPLLICYAESVDQRGNQIMSDKRNVILFSVFDENRSWYLTENIQRFLPNPAGVQLEDPEFQASNIMHSINGYVFDSLQLSVCLHEVAYWYILSIGAQTDFLSVFFSGYTFKHKMVYEDTLTLFPFSGETVFMSMENPGLWILGCHNSDFRNRGMTALLKVSSCDKNTGDYYEDSYEDISAYLLSKNNAIEPR | – | – | – | 33 | 196 % of wt activity | –
recombinant A2 mutant #18 (Lys-512 to Ala) (other, hx-A2 form from Sf9 cells; not shown: N-terminal hx leader (6xHis tag, vector-derived linker, factor Xa site)) SGAKKHPKTWVHYIAAEEEDWDYAPLVLAPDDRSYKSQYLNNGPQRIGRKYKKVRFMAYTDETFKTREAIQHESGILGPLLYGEVGDTLLIIFKNQASRPYNIYPHGITDVRPLYSRRLPKGVKHLKDFPILPGEIFKYAWTVTVEDGPTKSDPRCLTRYYSSFVNMERDLASGLIGPLLICYKESVDQRGNQIMSDKRNVILFSVFDENRSWYLTENIQRFLPNPAGVQLEDPEFQASNIMHSINGYVFDSLQLSVCLHEVAYWYILSIGAQTDFLSVFFSGYTFKHKMVYEDTLTLFPFSGETVFMSMENPGLWILGCHNSDFRNRGMTALLKVSSCDKNTGDYYEDSYEDISAYLLSKNNAIEPR | – | – | – | 21 | 219 % of wt activity | –
